# Source: paper PMC8387031, “Structures of Substrate Complexes of Foamy Viral Protease-Reverse Transcriptase”
# Assays:
# [1] = molecular target: MFV PR-RT ΔRH (deletion variant of MFV PR-RT that lacked the RH domain) (marmoset foamy virus (MFV)); experiment: crystal structure; MFV PR-RT ΔRH at 5 mg/ml with 13-bp dsDNA with a 2-nt 5' overhang (substrate 2) at a 1:1 molar ratio; hanging drop; 0.1 M DL-malic acid pH 7.0, 10% PEG 3350; space group C 2
# MFV PR-RT full-length [2] = molecular target: T1, MFV PR-RT full-length (marmoset foamy virus, UniProt D5JWV1 1-751); experiment: X-ray crystallography; monomer; 1:1 mix; GF/MALS: 20 mM HEPES pH 7.0, 250 mM NaCl, 5% glycerol, 0.5 mM EDTA, 1 mM DTT; cryo-EM: 150 mM NaCl, 20 mM HEPES pH 7.0, 1 mM DTT; crystals: N1 Morpheus MES-imidazole pH 6.5, 18 C; N2 0.1 M DL-malic acid pH 7.0, 10% PEG 3350; settings: protein: recombinant; tags: 6xHis-SUMO (pET28 vector); 15 bp; RNA 5' overhang 2 nt and 3' overhang 1 nt; recessed DNA 3' end
# MFV PR-RT ΔRH = MFV PR-RT ΔRH (marmoset foamy virus, UniProt D5JWV1 1-588); experiment: X-ray crystallography; asymmetric homodimer; 1:1 mix; GF/MALS: 20 mM HEPES pH 7.0, 250 mM NaCl, 5% glycerol, 0.5 mM EDTA, 1 mM DTT; cryo-EM: 150 mM NaCl, 20 mM HEPES pH 7.0, 1 mM DTT; crystals: N1 Morpheus MES-imidazole pH 6.5, 18 C; N2 0.1 M DL-malic acid pH 7.0, 10% PEG 3350; settings: protein: recombinant; tags: 6xHis-SUMO (pET28 vector); chain copies: 2; 13 bp, 5' overhang 2 nt on template
# MFV PR-RT full-length [3] = molecular target: T1, MFV PR-RT full-length; experiment: cryo-EM (4.8 A); asymmetric dimer; EMD-12698; GF/MALS: 20 mM HEPES pH 7.0, 250 mM NaCl, 5% glycerol, 0.5 mM EDTA, 1 mM DTT; cryo-EM: 150 mM NaCl, 20 mM HEPES pH 7.0, 1 mM DTT; crystals: N1 Morpheus MES-imidazole pH 6.5, 18 C; N2 0.1 M DL-malic acid pH 7.0, 10% PEG 3350; settings: protein: recombinant; tags: 6xHis-SUMO (pET28 vector); 22 bp, 5' overhang 2 nt on template
# MFV PR-RT full-length [4] = molecular target: T1, MFV PR-RT full-length; experiment: GF/MALS; 2:1 protein:NA; 0.5 mM EDTA; single peak 123.3 kDa, one protein per hybrid; GF/MALS: 20 mM HEPES pH 7.0, 250 mM NaCl, 5% glycerol, 0.5 mM EDTA, 1 mM DTT; cryo-EM: 150 mM NaCl, 20 mM HEPES pH 7.0, 1 mM DTT; crystals: N1 Morpheus MES-imidazole pH 6.5, 18 C; N2 0.1 M DL-malic acid pH 7.0, 10% PEG 3350; settings: protein: recombinant; tags: 6xHis-SUMO (pET28 vector); 28 bp, 5' overhang 6 nt on RNA
molecule,measurement,setting,value
MFV PR-RT ΔRH (deletion variant of MFV PR-RT that lacked the RH domain) (domain or fragment),stoichiometry N,[1],2
substrate 1 PPT RNA/DNA hybrid (DNA:RNA) RNA: UUCUUGUCCAGGAGAGGG DNA: CCTCTCCTGGACAAG,binding result,MFV PR-RT full-length [2],binds
substrate 2 dsDNA (dsDNA) DNA 1: AACAGAGTGCGACAC DNA 2: GTGTCGCACTCTG,binding result,MFV PR-RT ΔRH,binds
substrate 3 dsDNA (dsDNA) DNA 1: AACAGAGTGCGACACCTGATTCCA DNA 2: TGGAATCAGGTGTCGCACTCTG,binding result,MFV PR-RT full-length [3],binds
GF/MALS RNA/DNA hybrid (DNA:RNA) RNA: GUGAGCGAACAGAGUGCGACACCUGAUUCCAUGA DNA: TCATGGAATCAGGTGTCGCACTCTGTTC,binding result,MFV PR-RT full-length [4],binds
